Assay results reported in patent US20110212162A1 (SANFORD BURNHAM MEDICAL RESEARCH INSTITUTE, published 2011).

Target: T1, chemokine receptor CXCR4, expressed on transfected 293T cells (UniProt P61073 1-352, limits assumed)
T1 construct: whole, on cells; also called CXCR4 receptor
Experiment: phage binding to transfected 293T cells; bound phage rescued and titrated
Protocol: Briefly, plasmid (10 μg) was mixed with 900 μl of serumfree DMEM and 50 μl of FuGene and incubated for 15 min at room temperature before adding the mixture to the cells. The cells were detached using EDTA after 48 hrs post transfection and washed with PBS containing 1% BSA. Phage (5×10⁹ pfu) were incubated with the transfected cells and bound phage were rescued and titrated. For competitive binding assay, the cognate peptide (150 μg/ml) or antibody (50 μg/ml) was added during incubating of the phage with cells. Targeted proapoptotic peptide treatment of tumor-bearing mice Prostate cancer model. Orthotopic xenografted prostate tumors were established by injecting 1×10⁶ PPC1 human prostate cancer cells into the mouse prostate. Fifteen days post inoculation, the mice were intravenously injected with D(KLAKLAK)₂-[…] (SEQ ID NO:41), an equimolar mixture of D(KLAKLAK)₂ (SEQ ID NO:19) and […] (SEQ ID NO:6), or PBS. Biweekly injections of 100 μg/dose/mouse were given for three weeks. Melanoma model. Nude BALB/c mice were subcutaneously injected with 1×10⁶ C8161 human melanoma cells. Treatment started when mean tumor volumes reached about 100 mm3. Mice with size-matched tumors were randomized into three groups. […] The mice were monitored for weight loss, and tumors were dissected and weighed at the termination of the experiment. […]

T1 sequence (P61073 whole entry): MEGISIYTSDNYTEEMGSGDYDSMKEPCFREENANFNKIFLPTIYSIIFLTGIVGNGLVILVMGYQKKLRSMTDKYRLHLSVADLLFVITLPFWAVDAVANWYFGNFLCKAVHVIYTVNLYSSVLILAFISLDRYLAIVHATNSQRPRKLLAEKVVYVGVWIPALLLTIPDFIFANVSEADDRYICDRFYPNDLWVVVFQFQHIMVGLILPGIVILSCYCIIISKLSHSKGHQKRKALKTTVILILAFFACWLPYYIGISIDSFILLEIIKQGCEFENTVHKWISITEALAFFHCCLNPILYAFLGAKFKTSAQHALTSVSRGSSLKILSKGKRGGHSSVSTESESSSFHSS

CGNKRTRGC [LyP-1 phage (T7 phage displaying the peptide CGNKRTRGC, SEQ ID NO:16)]: no binding (tested: 5x10^9 pfu phage).
